US20260258115A1 (MAPP BIOPHARMACEUTICAL, published 2026)

B1: ADI-41420 (antibody, V domains shown)
VH: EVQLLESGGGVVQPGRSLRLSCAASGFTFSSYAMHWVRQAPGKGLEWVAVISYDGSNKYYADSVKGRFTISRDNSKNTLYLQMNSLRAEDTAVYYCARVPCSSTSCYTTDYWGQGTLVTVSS
VL: QPVLTQPPSVSGSPGQSVTISCTGTSSDVGSYNRVSWYQQPPGTAPKLMIYEVSNRPSGVPDRFSGSKSGNTASLTISGLQAEDEADYYCSSYTSSSPVFGGGTKVTVL
notes: IgG1
B2: ADI-41406 (antibody, V domains shown)
VH: EVQLVESGGNLVQPGGSLRLSCAASGFTFSSYVMNWVRQAPGKGLEWVSGISGSGGTSYYADSVKGRFTISRDNSNNTLYLQMKSLRAEDTAVYYCAKDPRFQKWLIEGTNWFDSWGQGTLVTVSS
VL: DIQVTQSPSSLSASVGDRVTITCRASQDVSNYLAWFQQKPGTAPKSLIYAASILQSGVPSKFRGSGSGTDFSLTISSLQPEDFATYYCQQYRSFPPTFGGGTKVEIK
notes: IgG1; also called Ab 698
B3: ADI-41229 (antibody, V domains shown)
VH: QVQLVQSGGGVVQPGRSLKLSCAASGFTFKSYGMHWVRQAPGKGLEWVAVISYDEINKYYADSVKGRFTISRDYSKNTLSLQMNSLTTEDTAMYYCAKPKTTGYYYLDAFDFWGQGTMVTVSS
VL: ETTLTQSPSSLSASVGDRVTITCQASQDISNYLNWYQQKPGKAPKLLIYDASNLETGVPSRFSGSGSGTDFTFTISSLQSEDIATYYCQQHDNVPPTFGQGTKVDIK
notes: also called Ab 551; Antibody Number 551
B4: ADI-14405 (antibody, V domains shown)
VH: QVQLVQSGTEVKKPGASVKVSCKASGYTFTNYDISWVRQAPGQGLEWMGWISGSTGNTIYAQNLQGRLTMTTDTSTSTAYMELRSLRSDDTAIYYCARDNVGYASGNYFDYWGQGTLVTVSS
VL: SYVLTQPPSVSVAPGKTARIPCGGNNIGSKSVHWYQQRPGQAPVLVIYYDSVRPSGIPERFSGSNSGNTATLTISTVEAGDEADFYCQVWDSSRDHEVFGGGTKLTVL
notes: also called Ab 71; Antibody Number 71
B5: ADI-41842 (antibody, V domains shown)
VH: QVQLVQSGAEVKKPGASVRVSCKASGYTFTHYDINWVRQAPGQGLEWMGWINPNSGDTDYAQKFQGRVTMTVDTSISTAYLDLRSLTSADAAVYYCARGGAYATNGYYIIWFDPWGQGTLVTVSS
VL: DIVVTQSPSSLSASVGDRVTITCRASQSISRYLNWFQKKPGKAPHLLIYAASILQSEVPSRFSGSGSGTDFTLTISSLQPEDFATYYCQQSYNSPYTFGPGTKVDIK
notes: also called Ab 942; Antibody Number 942
B6: ADI-41435 (antibody, V domains shown)
VH: EVQLLESGGGLVKPGGSLRLSCAASGFTFSSYSLNWVRQAPGKGLEWVSSISSSGTYIFYADSVKGRFTISRDNAKDSLFLQMNSLRAEDTAVYYCARARDMGNYDILTGYYRVDAFDIWGQGTMVTVSS
VL: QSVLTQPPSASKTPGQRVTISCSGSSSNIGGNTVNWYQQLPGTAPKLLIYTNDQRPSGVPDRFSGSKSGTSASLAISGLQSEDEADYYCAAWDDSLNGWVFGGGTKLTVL
notes: IgG1
B7: ADI-41596 (antibody, V domains shown)
VH: QVQLQQWGAGLLKPSETLSLTCAVYGDSFSGYFWTWIRQPPGKGLEWIGEINLSGSTNYNPSLKSRVTILVDTSKNQFSLKLSSVTAADTAVYYCARGLHVSDDQDSSGYYFHPGSFDYWGQGTLVTVSS
VL: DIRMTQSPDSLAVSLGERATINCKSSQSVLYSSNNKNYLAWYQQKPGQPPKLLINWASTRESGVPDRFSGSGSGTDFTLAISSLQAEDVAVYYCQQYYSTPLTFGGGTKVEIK
notes: also called Ab 870; Antibody Number 870
B8: ADI-41350 (antibody, V domains shown)
VH: EVQLVESGAGLVQPGGSLRLSCAASGFTFSTYAVSWVRQAPGKGLEWVSAISGSGASTYFADSVKGRFTISRDNSKNTLYLQMNSLRAEDTAVYYCAKARLELRPYYYGMDVWGQGTTVTVSS
VL: QPVLTQPASVSGSPGQSITISCTGTSSDVGGYNFVSWYQQHPGKAPKLIIYEVSNRPSGVSNRFSGSKSGNTASLTISGLQAEDEADYYCSSSTLSTTYVFGTGTKVTVL
notes: IgG1
B9: ADI-41400 (antibody, V domains shown)
VH: EVQLLESGGGLIQPGGSLRLSCAASKFTFSDYEMNWVRQAPGKGLEWLSYISSSGGIMYYADSVKGRFTISRDNAKNSLYLQMNSLRAEDTAVYFCARAGRLLSGLDVWGHGTTVTVSS
VL: EIVLTQSPSTLSASVGDRVTITCRASQSISPWLAWYQQKPGKAPKLLIYRASSLETGVPPRFSGSGSGTEFTLTISSLQPDDFATYYCQHYNSYLYSFGQGTKVEIK
notes: IgG1; also called Ab 693
B10: ADI-41841 (antibody, V domains shown)
VH: EVQLLESGGGLVKPGGSLRLSCAASGFSFSYYSMNWVRQTPGKGLEWVSSISDRSSYISYADSVKGRFTISRDNAKNSLYLQMNSLRAEDTAVYYCARDQYESYAFDIWGQGTTVTVSS
VL: DIQVTQSPSSLSASVGDRITITCQASQDVGNYLNWYQQKVGKAPKLLIHDASDLETGVPSRFSGSGSGTYFTFTISSLQPEDFATYYCQPYDNLRPVTFGQGTRLEIK
B11: ADI-41379 (antibody, V domains shown)
VH: QVQLVQSGAEVKKPGESLKISCKGSGYSFSSFWIGWVRQMPGKGLEWMGIIYPGDSDTRYSPSFKGQVTISADTSISTAYLQWSSLKASDTAMYYCAKSIVGSTGSFDPWGQGTLVTVSS
VL: DIQMTQSPSSLSASVGDRVTITCQASQDISNFLNWYQQKPGKAPKLLIYDASNLRTGVPSRFSGSGSGTEFTFTISSLQPEDIATYYCQQYHDLPPLTFGGGTKVDIK
notes: IgG1
B12: ADI-41361 (antibody, V domains shown)
VH: QVQLQESGGGVVQPGRSLRLSCAASGFAFSDYAMDWVRQAPGKGLEWVAVISFDGSNKFYADSVKGRFTISRDNSENTLFLQMNSLRAEDTAVYYCVRDFVPCSGATCYLPPVYWGRGTLVTVSS
VL: EIVLTQSPATLSVSPGERATLSCRASQSVSSDLAWYQQKPGQAPRLLIYGASTRATGIPARFSGSGSGTEFTLTISRLQSEDFAVYFCQQYNNWPSWTFGQGTKVEIK
notes: IgG1; also called Ab 658
B13: ADI-41221 (antibody, V domains shown)
VH: EVQLLESGGGLVKPGGSLRLSCAASGFTFSDYTMNWVRQAPGKGLEWVSSISITSSHIYYADSVKGRFTISRDNAKNSLYLQINSLRAEDTAAYYCARELGFASSSYSYYYGMDVWGQGTTVTVSS
VL: QSALTQPRSVSGSPGQSVTISCTGTSSDVGDYNSVSWYQQHPGTAPKLIIFDVTQRPSGVPDRFSGSKSANTASLTISGLQPEDEADYYCCSFAGNYVFGTGTKVTVL
B14: ADI-20975 (antibody, V domains shown)
VH: QVQLVESGTHVKKPGASVKVSCEASDDTFNNKGIVWVRQAPGQGLEWMGWIRPNNGNTKYAQKFQGRVTMTTDASTNTAYMELRSLRSGDTAVYYCAREQFKWNDFYFDYWGQGILVTVSS
VL: SYELMQPPSVSVAPGQTATITCGGSNIGSETVHWYQQKPGQAPVLVVHDDTDRPSGIPERFSGSNSGNTATLTISGVEAGDEADFYCQVRDSRTDDVVFGGGTKLTVL

Columns and labels:
[1] = molecular target: RSV prefusion F (preF), DS-Cav1 (respiratory syncytial virus, UniProt P03420 26-513); assay: BLI, IgG on sensor
[2] = molecular target: RSV postfusion F (postF), F deltaFP (respiratory syncytial virus, UniProt P03420 26-513); assay: BLI, IgG on sensor, 100 nM antigen
[3] = molecular target: RSV fusion glycoprotein (RSV F) on RSV-A2 virus (respiratory syncytial virus, UniProt P03420 26-574); assay: cell-based or functional assay
[4] = molecular target: T1, RSV prefusion F (preF), DS-Cav1 stabilized trimer, subtype A (Respiratory Syncytial Virus, subtype A, UniProt P03420 26-513); assay: BLI, apparent IgG KD (Table 9A)
[5] = molecular target: T2, RSV postfusion F (postF), F ΔFP trimer, subtype A (Respiratory Syncytial Virus, subtype A, UniProt P03420 26-513); assay: BLI, apparent IgG KD (Table 9A)
[6] = molecular target: T3, RSV F on RSV subtype A virus (RSV-A2) (Respiratory Syncytial Virus, subtype A, …, UniProt P03420 26-574); assay: cell-based or functional assay
[7] = molecular target: RSV F on RSV subtype B virus (mKate-RSV B 18537) (Respiratory Syncytial Virus, subtype B, …, UniProt P13843 26-574); assay: cell-based or functional assay
[8] = molecular target: T3, RSV F on RSV subtype A virus (RSV-A2); assay: cell-based or functional assay; remark: listed apart in the source
[9] = molecular target: T1, RSV prefusion F (preF), DS-Cav1 …; assay: BLI, IgG on anti-human IgG sensors, 100 nM antigen, apparent KD
[10] = molecular target: T2, RSV postfusion F (postF), F ΔFP trimer, …; assay: as above

| Binder | binding result [1] | Kd [2] [nM] | Neutralization IC50 (RSV subtype A) [3] [mg/L] | Kd [4] [nM] | Kd [5] [nM] | Neutralization - RSV A2 IC50 (pM) [6] [pM] | other results |
| --- | --- | --- | --- | --- | --- | --- | --- |
| B1 | no binding (tested: 100 nM antigen) | 110 | > 25 | – | – | – | – |
| B2 | no binding (tested: 100 nM antigen) | 0.571 | > 25 | – | – | – | – |
| B3 | – | – | – | 1.1 | 0.71 | 228 | neut IC50 (ug/ml) subtype A (wright) [6]: 0.066 µg/mL |
| B4 | – | – | – | 0.14 | 12 | 58.3 | neut IC50 (ug/ml) subtype B (graham) [7]: 0.04 µg/mL; neut IC50 (ug/ml) subtype A (graham) [6]: 0.04 µg/mL |
| B5 | – | – | – | – | – | – | Neutralization IC50 (RSV subtype A) [8]: > 25 mg/L; Kd [9]: 0.717 nM; Kd [10]: 0.442 nM |
| B6 | no binding (tested: 100 nM antigen) | 3.47 | > 25 | – | – | – | – |
| B7 | – | – | – | 0.3 | 0.44 | 180 | neut IC50 (ug/ml) subtype A (wright) [6]: 0.054 µg/mL |
| B8 | no binding (tested: 100 nM antigen) | 0.602 | > 25 | – | – | – | – |
| B9 | no binding (tested: 100 nM antigen) | 0.547 | > 25 | – | – | – | – |
| B10 | – | – | – | – | – | – | Neutralization IC50 (RSV subtype A) [8]: 0.04 mg/L; Kd [9]: 0.121 nM; Kd [10]: 0.265 nM |
| B11 | no binding (tested: 100 nM antigen) | 1.11 | > 25 | – | – | – | – |
| B12 | no binding (tested: 100 nM antigen) | 0.383 | 2.54 | – | – | – | – |
| B13 | – | – | – | 0.3 | 0.32 | 65.4 | neut IC50 (ug/ml) subtype A (wright) [6]: 0.04 µg/mL |
| B14 | – | – | – | 0.092 | 0.15 | 67 | neut IC50 (ug/ml) subtype B (graham) [7]: 0.49 µg/mL; neut IC50 (ug/ml) subtype A (graham) [6]: 0.05 µg/mL |
